# Assay results published in PMC9449495, “Transcription factor VvibHLH93 negatively regulates proanthocyanidin biosynthesis in grapevine”.
# B1: VviLAR1 promoter E/G-box probe (tandem MYC and G-box) (dsDNA)
# DNA 1: GAGTCGTTGAGGCACATGATTTTTTTGTTAGGACGTGTTATG
# DNA 2: CATAACACGTCCTAACAAAAAAATCATGTGCCTCAACGACTC
# B2: VviLAR1 promoter E/G-box mutant probe (dsDNA)
# DNA 1: GAGTCGTTGAGGTATATCATTTTTTTGTTAGAAAATCTTATG
# DNA 2: CATAAGATTTTCTAACAAAAAAATGATATACCTCAACGACTC
# B3: VviLAR1 promoter E/G-box cold probe (dsDNA)
# DNA 1: B1 DNA 1
# DNA 2: B1 DNA 2
# Assays:
# VvibHLH93 [1] = target: T1, VvibHLH93 (Vitis vinifera, UniProt A0ABY9CC89 1-331); test: EMSA; LightShift Chemiluminescent EMSA Kit (Thermo Fisher) per manufacturer's protocol; buffer, salt, pH and temperature not stated; conditions: protein: recombinant, tags: His (pET-32a fusion), chain copies: 2
# T1 sequence (A0ABY9CC89 entry or part of it): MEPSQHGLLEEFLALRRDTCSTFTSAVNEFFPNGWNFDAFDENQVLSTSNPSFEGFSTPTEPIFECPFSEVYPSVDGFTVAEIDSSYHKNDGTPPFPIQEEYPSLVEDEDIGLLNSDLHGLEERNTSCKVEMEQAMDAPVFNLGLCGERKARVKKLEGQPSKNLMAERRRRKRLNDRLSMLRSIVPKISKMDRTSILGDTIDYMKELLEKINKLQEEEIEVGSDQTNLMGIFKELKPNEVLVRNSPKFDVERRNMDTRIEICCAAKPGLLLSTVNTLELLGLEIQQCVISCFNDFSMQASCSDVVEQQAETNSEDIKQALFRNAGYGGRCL
# VvibHLH93 [2] = target: T1, VvibHLH93; test: competition; 50x unlabeled competitor vs N1; shifted band less abundant; LightShift Chemiluminescent EMSA Kit (Thermo Fisher) per manufacturer's protocol; buffer, salt, pH and temperature not stated; conditions: protein: recombinant; tags: His (pET-32a fusion); chain copies: 2
binder,measurement,setting,value
B1,binding result,VvibHLH93 [1]; label: 3' biotin,binds
B2,binding result,VvibHLH93 [1],no binding
B3,binding result,VvibHLH93 [2],binds
